B2: DC-SIGN (DC-specific intercellular adhesion molecule 3-grabbing nonintegrin) (receptor, UniProt Q9NNX6 62-404, looked up)
chain: KVPSSISQEQSRQDAIYQNLTQLKAAVGELSEKSKLQEIYQELTQLKAAVGELPEKSKLQEIYQELTRLKAAVGELPEKSKLQEIYQELTWLKAAVGELPEKSKMQEIYQELTRLKAAVGELPEKSKQQEIYQELTRLKAAVGELPEKSKQQEIYQELTRLKAAVGELPEKSKQQEIYQELTQLKAAVERLCHPCPWEWTFFQGNCYFMSNSQRNWHDSITACKEVGAQLVVIKSAEEQNFLQLQSSRSNRFTWMGLSDLNQEGTWQWVDGSPLLPSFKQYWNRGEPNNVGEEDCAEFSGNGWNDDKCNLAKFWICKKSAASCSRDEEQFLSPAPATPNPPPA
notes: Immobilised on a CM5 sensor chip
B4: Pf MSP1-19, C-terminal fragment of the P. falciparum merozoite surface protein MSP1 (other)
chain: NISQHQCVKKQCPENSGCFRHLDEREECKCLLNYKQEGDKCVENPNPTCNENNGGCDADATCTEEDSGSSRKKITCECTKPDSYPLFDGIFCS
notes: domain: MSP1-19; Immobilised on CM5 sensor chips
B5: azurin from Pseudomonas aeruginosa (other)
chain: AECSVDIQGNDQMQFNTNAITVDKSCKQFTVNLSHPGNLPKNVMGHNWVLSTAADMQGVVTDGMASGLDKDYLKPDDSRVIAHTKLIGSGEKDSVTFDVSKLKEGEQYMFFCTFPGHSALMKGTLTLK
notes: Recombinant cupredoxin (copper protein) expressed in E. coli JM109 from pUC19-paz; also called wt azurin; wt-azurin
B6: Laz from Neisseria gonorrhoeae F62 (other)
chain: CSQEPAAPAAEATPAGEAPASEAPAAEAAPADAAEAPAAGNCAATVESNDNMQFNTKDIQVSKACKEFTITLKHTGTQPKASMGHNLVIAKAEDMDGVFKDGVGAADTDYVKPDDARVVAHTKLIGGGEESSLTLDPAKLADGDYKFACTFPGHGALMNGKVTLVD
notes: also called Neisserial Laz protein

What was measured:
[1] = target: B4; test: SPR, MSP1-19 immobilised on CM5
ICAM-3 [2] = target: T1, ICAM-3 (UniProt P32942 30-485, limits assumed); test: SPR, DC-SIGN immobilised on CM5, proteins injected at 0-100 nM, equilibrium response fitted to Req=Rmax/(1+(Kd/C))
T1 sequence (looked up): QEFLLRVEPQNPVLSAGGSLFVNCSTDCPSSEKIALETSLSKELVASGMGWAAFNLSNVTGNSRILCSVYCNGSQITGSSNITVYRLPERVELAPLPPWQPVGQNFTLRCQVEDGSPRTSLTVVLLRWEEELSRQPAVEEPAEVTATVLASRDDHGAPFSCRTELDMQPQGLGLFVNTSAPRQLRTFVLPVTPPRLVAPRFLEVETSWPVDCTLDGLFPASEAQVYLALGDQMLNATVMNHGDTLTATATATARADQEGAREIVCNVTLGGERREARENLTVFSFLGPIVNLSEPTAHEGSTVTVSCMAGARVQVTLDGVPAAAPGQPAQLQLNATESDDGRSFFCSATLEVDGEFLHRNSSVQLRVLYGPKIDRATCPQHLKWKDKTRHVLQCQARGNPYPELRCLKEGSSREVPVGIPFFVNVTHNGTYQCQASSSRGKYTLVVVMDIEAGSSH

[3] = target: T2, Pf MSP1-42, C-terminal fragment of the P. falciparum merozoite surface protein MSP1 (Plasmodium falciparum, UniProt Q8I0U8 1327-1699); test: SPR (Biacore X), MSP1-42 immobilised on CM5, equilibrium response fitted to Req=Rmax/(1+(Kd/C))
T2 construct: domain: MSP1-42; Immobilised on CM5 sensor chips
T2 sequence: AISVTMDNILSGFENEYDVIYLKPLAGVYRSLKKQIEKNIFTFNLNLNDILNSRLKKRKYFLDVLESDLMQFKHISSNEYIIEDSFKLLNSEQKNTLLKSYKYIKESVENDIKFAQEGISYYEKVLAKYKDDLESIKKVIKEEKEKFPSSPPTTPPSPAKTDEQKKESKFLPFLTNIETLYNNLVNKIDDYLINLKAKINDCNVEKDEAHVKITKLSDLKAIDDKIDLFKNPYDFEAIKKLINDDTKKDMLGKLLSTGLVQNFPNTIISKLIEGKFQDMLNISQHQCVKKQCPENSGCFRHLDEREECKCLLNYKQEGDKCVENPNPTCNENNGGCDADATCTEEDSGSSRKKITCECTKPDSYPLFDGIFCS

[4] = target: B4; test: SPR (Biacore X), MSP1-19 immobilised on CM5, equilibrium response fitted to Req=Rmax/(1+(Kd/C))
[5] = target: GST-Azu 88-113 (GST fused in frame to azurin amino acids 88 to 113) (Pseudomonas aeruginosa, UniProt P08515 1-218 = GST); test: SPR, MSP1-19 immobilised on CM5, GST-Azu fusion series
Chain of GST-Azu 88-113 (GST fused in frame to azurin amino acids 88 to 113) (P08515 1-218, tags left off): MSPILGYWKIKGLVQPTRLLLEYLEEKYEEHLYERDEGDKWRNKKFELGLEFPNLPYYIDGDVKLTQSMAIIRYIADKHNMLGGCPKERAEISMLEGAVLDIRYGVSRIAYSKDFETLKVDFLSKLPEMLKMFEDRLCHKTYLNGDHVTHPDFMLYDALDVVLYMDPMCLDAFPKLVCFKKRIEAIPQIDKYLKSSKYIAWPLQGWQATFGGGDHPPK

[6] = target: B5; test: SPR (Biacore X), MSP1-19 immobilised on CM5, equilibrium response fitted to Req=Rmax/(1+(Kd/C))
[7] = target: B6; test: as above
[8] = target: T3, glutathione S-transferase (GST) (UniProt P08515 1-218 = GST); test: SPR, MSP1-19 immobilised on CM5
T3 construct: Control protein in the SPR experiments
T3 sequence (P08515 whole entry): as the sequence (P08515 1-218, tags left off) above

[9] = target: T4, GST-Azu 36-89 (GST fused in frame to azurin amino acids 36 to 89) (Pseudomonas aeruginosa, UniProt P08515 1-218 = GST); test: SPR, MSP1-19 immobilised on CM5
T4 construct: also called pGST-azu 36-89 product
T4 sequence (P08515 1-218, tags or fused parts left off): as the sequence (P08515 1-218, tags left off) above

[10] = target: T5, GST-Azu 36-128 (GST fused in frame to azurin amino acids 36 to 128) (Pseudomonas aeruginosa, UniProt P08515 1-218 = GST); test: SPR, MSP1-19 immobilised on CM5
T5 construct: Azurin fragment cloned into the BamHI and EcoRI sites of pGEX-5X

[11] = target: B2; test: SPR, DC-SIGN immobilised on CM5, proteins injected at 0-100 nM, equilibrium response fitted to Req=Rmax/(1+(Kd/C))
ICAM-3 [12] = target: T1, ICAM-3; test: SPR, azurin immobilised on CM5, 1 mg/ml CM5 (carboxymethyldextran) in HBS-EP running buffer
NCAM = target: T6, NCAM (UniProt P13591 20-718); test: as above
T6 construct: also called Neural Cell Adhesion Molecule

HIV-1 gp41 = HIV-1 gp41 (HIV-1, UniProt P04578 512-684); test: SPR, azurin immobilised on CM5
ICAM-2 = target: T7, ICAM-2 (UniProt P13598 25-223); test: SPR, azurin immobilised on CM5
T7 sequence: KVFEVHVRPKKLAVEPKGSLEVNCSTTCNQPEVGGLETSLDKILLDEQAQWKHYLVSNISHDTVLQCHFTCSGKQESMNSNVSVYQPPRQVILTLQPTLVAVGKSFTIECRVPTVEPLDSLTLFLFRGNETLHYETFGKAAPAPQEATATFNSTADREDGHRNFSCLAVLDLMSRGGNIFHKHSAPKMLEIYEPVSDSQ

ICAM-1 = ICAM-1 (UniProt P05362 28-480); test: SPR, azurin immobilised on CM5
Chain of ICAM-1 (P05362 28-480 limits assumed): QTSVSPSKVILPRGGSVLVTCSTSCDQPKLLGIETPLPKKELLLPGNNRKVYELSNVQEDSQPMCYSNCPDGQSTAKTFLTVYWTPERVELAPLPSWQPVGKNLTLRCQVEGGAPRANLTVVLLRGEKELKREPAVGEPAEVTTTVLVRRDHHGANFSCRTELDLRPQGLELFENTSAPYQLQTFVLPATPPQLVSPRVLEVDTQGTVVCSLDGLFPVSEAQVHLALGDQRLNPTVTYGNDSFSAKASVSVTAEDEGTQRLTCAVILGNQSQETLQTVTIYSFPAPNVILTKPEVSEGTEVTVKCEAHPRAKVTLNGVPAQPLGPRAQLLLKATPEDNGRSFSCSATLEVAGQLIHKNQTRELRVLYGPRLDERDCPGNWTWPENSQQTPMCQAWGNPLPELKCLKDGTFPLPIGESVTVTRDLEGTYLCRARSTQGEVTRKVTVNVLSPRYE

CD4 [13] = target: T8, CD4 (UniProt P01730 26-396); test: SPR, azurin immobilised on CM5 (Az-CM5), 1 mg/ml CM5 in HBS-EP running buffer
T8 construct: Bought protein; Used both immobilised on CM5 and as eluent

CD4 [14] = target: T8, CD4; test: SPR, CD4 immobilised on CM5 (CD4-CM5), equilibrium response fitted to Req=Rmax/(1+(Kd/C))
HIV-1 gag = HIV-1 gag (HIV-1, UniProt P04591 1-500); test: SPR, azurin immobilised on CM5 (target taken from the preceding sentence)
HIV-1 nef = target: T9, HIV-1 nef (HIV-1, UniProt P04601 1-206); test: as above
T9 sequence: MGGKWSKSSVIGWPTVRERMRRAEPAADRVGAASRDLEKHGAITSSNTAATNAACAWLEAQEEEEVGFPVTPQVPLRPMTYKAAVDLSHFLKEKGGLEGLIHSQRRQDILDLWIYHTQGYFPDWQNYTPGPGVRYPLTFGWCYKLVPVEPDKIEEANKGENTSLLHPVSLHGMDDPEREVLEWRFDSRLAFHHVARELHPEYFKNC

B1: H.8-GST (H.8 epitope fused in the N-terminal of GST) (other)
chain: CSQEPAAPAAEATPAGEAPASEAPAAEAAPADAAEAPAA
notes: not shown: glutathione S-transferase (GST) of the commercial pGEX-5X-3 / pET29a-gst vectors
Does B1 bind [1]?
Result: no binding (tested: 0.05-300 nM (FIG. 7 legend))

With B2 as the binder, how does the Kd (ICAM-3 [2]) read?
The Kd was 0.93 nM.

B3: H.8-azurin (H.8 epitope of Laz fused in frame to the N-terminal part of P. aeruginosa azurin) (other)
chain: CSQEPAAPAAEATPAGEAPASEAPAAEAAPADAAEAPAAAECSVDIQGNDQMQFNTNAITVDKSCKQFTVNLSHPGNLPKNVMGHNWVLSTAADMQGVVTDGMASGLDKDYLKPDDSRVIAHTKLIGSGEKDSVTFDVSKLKEGEQYMFFCTFPGHSALMKGTLTLK
notes: also called H.8-Paz; H.8-paz
For B3, which Kd [3] is on record?
The Kd was 14.3 nM.

And the Kd [4]?
Its Kd is 11.8 nM.

Does B4 bind [5]?
Result: no binding

What about the Kd [6] of the same binder?
Its Kd is 32.2 nM.

What about the Kd [7] of the same binder?
Its Kd is 26.2 nM.

Does B4 bind [8]?
Result: no binding (tested: 0.05-300 nM (FIG. 7 legend))

What about the Kd [9] of the same binder?
Its Kd is 20.9 nM.

And the Kd [10]?
The Kd was 24.5 nM.

Which results are given for B5?
Kd [11]: 0.83 nM; Kd (ICAM-3 [12]): 19.5 nM; Kd (NCAM): 20 nM; binding result (HIV-1 gp41): no binding; binding result (ICAM-2): no binding; binding result (ICAM-1): no binding; Kd [3]: 54.3 nM; Kd (CD4 [13]): 25.1 nM; Kd (CD4 [14]): 36.9 nM; binding result (HIV-1 gag): no binding; binding result (HIV-1 nef): no binding

Which Kd [3] does the source give for B6 here?
The Kd was 45.6 nM.
